{
  "source": "paper PMC10407285",
  "about": "(The Journal of Biological Chemistry, 2023)",
  "molecules": {"B1": {"name": "Methanospirillum hungatei JF-1 SpeD2 (WP_011448617) (Methanospirillum hungatei JF-1) (protein)", "chain": "MIDTLVPTREGIATAPAKSDQEIMEEFKSRNAWGLYTSVDLKNCNPETIRDAGKIREFVIQLCDLIKMKRFGEPQIINFGPCERVAGYSMTQLIETSLIGAHFANETNAAYIDIFSCKEYAPQLTAEFCREFFGADKVTVHIAFRD"}, "B2": {"name": "Ca. Velamenicoccus archaeovorus LiM SpeD homolog (WP_128700171) (Candidatus Velamenicoccus archaeovorus) (protein)", "chain": "MPKNVTMPAGSFGLEVVLDLYGCDPQTIRSAKKLSEFTTKLCKLLKMKKYGKTLLPHFGYDKAHTAGYSMLQFIETSSITGHFSELWNSAYINIFSCREFDAHKAADFTVKFFGARKATRRVLLRK"}, "B3": {"name": "Capsulimonas corticalis SpeD homolog (WP_119321511) (Capsulimonas corticalis) (protein)", "chain": "MKNHTTYGAHLTLRIANIERRHALQGPHGVSDLLVDLIDRIGMRILAGPLTAEETGDPERRGWSSVAILYESHCAIHTYPELGEAFLDVFSCKTFPIAAITTLLTERFGEFAIVEQSLTDRGIHWGPNVEKELASWVLTRSEK", "notes": "self-processed pyruvoyl enzyme"}, "B4": {"name": "Tribonema minus SpeD homolog (KAG5182568) (Tribonema minus) (protein)", "chain": "MRVPIQRTTVPQSSPLIRAHGSHIMLDFTEWWMPPEEGAEAVMELVRAALREEGVREVHHKAVVLGTRGESPPGFTAVVLIDESHVTAHCYADRGWLALDVFTCGGASTARVAAAIEAGVRRLSPRAVLQQRASAPRFVHRVD", "notes": "as for B3"}},
  "key": {"[1]": {"molecular_target": "T1, Ca. Marinimicrobia bacterium SpeD (PIS27863) (Fidelibacterota bacterium CG08_land_8_20_14_0_20_45_22, UniProt A0A2H0XSF6)", "T1 construct": "self-processed pyruvoyl enzyme", "test": "coupled CO2-release assay (NADH, A340), Michaelis-Menten fit", "assay_type": "biochemical, Candidatus Fidelibacterota bacterium", "conditions": "50 mM Hepes pH 7.7, 100 mM NaCl, 1 mM DTT, 26 °C; pyruvoyl-dependent decarboxylation", "from_the_text": "Marinimicrobia bacterium SpeD (PIS27863)"}, "[2]": {"molecular_target": "T2, Ca. Diapherotrites archaeon SpeD homolog (PIN84875) (Candidatus Diapherotrites archaeon CG11_big_fil_rev_8_21_14_0_20_37_9, UniProt A0A2G9N1A6)", "T2 construct": "self-processed pyruvoyl enzyme", "test": "coupled CO2-release assay (NADH, A340), Michaelis-Menten fit", "assay_type": "biochemical", "conditions": "50 mM Hepes pH 7.7, 100 mM NaCl, 1 mM DTT, 26 °C; pyruvoyl-dependent decarboxylation", "from_the_text": "Diapherotrites archaeon SpeD homolog (PIN84875)"}, "[3]": {"molecular_target": "T3, Ca. Woesearchaeota archaeon SpeD homolog (PIN80235) (Candidatus Woesearchaeota archaeon CG10_big_fil_rev_8_21_14_0_10_34_8, UniProt A0A2G9MN15)", "T3 construct": "self-processed pyruvoyl enzyme", "test": "coupled CO2-release assay (NADH, A340), Michaelis-Menten fit", "assay_type": "biochemical", "conditions": "50 mM Hepes pH 7.7, 100 mM NaCl, 1 mM DTT, 26 °C; pyruvoyl-dependent decarboxylation", "from_the_text": "Woesearchaeota archaeon SpeD homolog (PIN80235)"}, "[4]": {"test_system": "Ca. Atribacteria bacterium SpeD2 (PIU25646)", "conditions": "50 mM Hepes pH 7.7, 100 mM NaCl, 1 mM DTT, 26 °C; pyruvoyl-dependent decarboxylation"}, "[5]": {"test_system": "Ca. Peribacteria bacterium SpeD (OGJ64158)", "conditions": "50 mM Hepes pH 7.7, 100 mM NaCl, 1 mM DTT, 26 °C; pyruvoyl-dependent decarboxylation"}, "[6]": {"test_system": "Ca. Sumerlaeota bacterium SpeD2 (MBN1518199)", "conditions": "50 mM Hepes pH 7.7, 100 mM NaCl, 1 mM DTT, 26 °C; pyruvoyl-dependent decarboxylation"}, "[7]": {"molecular_target": "T4, Ca. Electrothrix aarhusiensis SpeD homolog (RWX43081) (Candidatus Electrothrix aarhusensis, UniProt A0A3S3QFL2)", "T4 construct": "gene H206_03171", "conditions": "50 mM Hepes pH 7.7, 100 mM NaCl, 1 mM DTT, 26 °C; pyruvoyl-dependent decarboxylation"}, "N=C(N)NCCC[C@H](N)C(=O)O": {"test_system": "N=C(N)NCCC[C@H](N)C(=O)O", "test": "purified protein", "conditions": "50 mM Hepes pH 7.7, 100 mM NaCl, 1 mM DTT, 26 °C, pyruvoyl-dependent decarboxylation"}, "purified protein": {"substrate": "NCCC[C@H](N)C(=O)O", "test": "purified protein", "conditions": "50 mM Hepes pH 7.7, 100 mM NaCl, 1 mM DTT, 26 °C, pyruvoyl-dependent decarboxylation"}, "[8]": {"substrate": "N=C(N)NCCC[C@H](N)C(=O)O", "test": "coupled CO2-release assay (NADH, A340), Michaelis-Menten fit", "assay_type": "biochemical, Capsulimonas corticalis", "conditions": "50 mM Hepes pH 7.7, 100 mM NaCl, 1 mM DTT, 26 °C, pyruvoyl-dependent decarboxylation"}, "[9]": {"substrate": "N=C(N)NCCC[C@H](N)C(=O)O", "test": "coupled CO2-release assay (NADH, A340), Michaelis-Menten fit", "assay_type": "biochemical, Tribonema minus", "conditions": "50 mM Hepes pH 7.7, 100 mM NaCl, 1 mM DTT, 26 °C, pyruvoyl-dependent decarboxylation"}},
  "data": [
    {"molecule": "N=C(N)NCCC[C@H](N)C(=O)O", "note": "[L-arginine]", "values": [
      {"measurement": "Km", "setting": "[1]", "result": "760 ± 50", "unit": "µM"},
      {"measurement": "Km", "setting": "[2]", "result": "95 ± 19", "unit": "µM"},
      {"measurement": "Km", "setting": "[3]", "result": "350 ± 24", "unit": "µM"}
    ]},
    {"molecule": "NCCC[C@H](N)C(=O)O", "note": "[L-ornithine]", "values": [
      {"measurement": "Km", "setting": "[4]", "result": "330 ± 30", "unit": "µM"},
      {"measurement": "Km", "setting": "[5]", "result": "270 ± 20", "unit": "µM"},
      {"measurement": "Km", "setting": "[6]", "result": "21 ± 1.3", "unit": "µM"},
      {"measurement": "Km", "setting": "[7]", "result": "89 ± 13", "unit": "µM"}
    ]},
    {"molecule": "Ca. Poseidonales archaeon SpeD homolog (DAC51064) (Candidatus Poseidoniales archaeon)", "values": [
      {"measurement": "Km", "setting": "N=C(N)NCCC[C@H](N)C(=O)O", "result": "2800 ± 500", "unit": "µM"},
      {"measurement": "kcat", "setting": "N=C(N)NCCC[C@H](N)C(=O)O", "result": "0.48 ± 0.042", "unit": "s⁻¹"},
      {"measurement": "kcat/Km", "setting": "N=C(N)NCCC[C@H](N)C(=O)O", "result": "180 ± 19", "unit": "M⁻¹ s⁻¹"}
    ]},
    {"molecule": "Nannochloropsis gaditana SpeD homolog (XP_005856029) (Microchloropsis gaditana)", "values": [
      {"measurement": "Km", "setting": "N=C(N)NCCC[C@H](N)C(=O)O", "result": "1300 ± 100", "unit": "µM"},
      {"measurement": "kcat", "setting": "N=C(N)NCCC[C@H](N)C(=O)O", "result": "0.049 ± 0.003", "unit": "s⁻¹"},
      {"measurement": "kcat/Km", "setting": "N=C(N)NCCC[C@H](N)C(=O)O", "result": "39 ± 0.3", "unit": "M⁻¹ s⁻¹"}
    ]},
    {"molecule": "B1", "values": [
      {"measurement": "Km", "setting": "purified protein", "result": "230 ± 18", "unit": "µM"},
      {"measurement": "kcat", "setting": "purified protein", "result": 0.05, "unit": "s⁻¹"},
      {"measurement": "kcat/Km", "setting": "purified protein", "result": 220, "unit": "M⁻¹ s⁻¹"}
    ]},
    {"molecule": "B2", "values": [
      {"measurement": "Km", "setting": "purified protein", "result": "73 ± 3.2", "unit": "µM"},
      {"measurement": "kcat", "setting": "purified protein", "result": 0.008, "unit": "s⁻¹"},
      {"measurement": "kcat/Km", "setting": "purified protein", "result": 113, "unit": "M⁻¹ s⁻¹"}
    ]},
    {"molecule": "B3", "values": [
      {"measurement": "Km", "setting": "[8]", "result": "370 ± 50", "unit": "µM"},
      {"measurement": "kcat", "setting": "[8]", "result": "0.08 ± 0.003", "unit": "s⁻¹"},
      {"measurement": "kcat/Km", "setting": "[8]", "result": "220 ± 36", "unit": "M⁻¹ s⁻¹"}
    ]},
    {"molecule": "B4", "values": [
      {"measurement": "Km", "setting": "[9]", "result": "720 ± 110", "unit": "µM"},
      {"measurement": "kcat", "setting": "[9]", "result": "0.08 ± 0.004", "unit": "s⁻¹"},
      {"measurement": "kcat/Km", "setting": "[9]", "result": "110 ± 10", "unit": "M⁻¹ s⁻¹"}
    ]}
  ]
}
